We go through one protein from ChEMBL document CHEMBL1122728, “Derivatives of 2-methyl-1,4-naphthoquinone as substrates and inhibitors of the vitamin K dependent carboxylase” (J Med Chem, 1984).

“And” between values parts separate entries of the source, which are not always exact repeats. Equal entries are not always repeated.

By Km is commonly meant the substrate concentration at which the rate is half of its maximum.

Compound in data set [1]: COC(=O)[C@H](CC(C)C)NC(=O)[C@H](CCC(=O)O)NC(=O)[C@H](CCC(=O)O)NC(=O)CCCC1=C(C)C(=O)c2ccccc2C1=O
Put plainly: (§1) In vitro inhibitory effect Vitamin K dependent carboxylase of Phe-Leu-Glu-Glu-Leu in rat microsomal protein. To be noted: Microsome. Format: microsomes.

Compound in data set [2]: COC(=O)[C@H](CC(C)C)NC(=O)[C@H](CCC(=O)O)NC(=O)[C@H](CCC(=O)O)NC(=O)CCCC1=CC(=O)c2ccccc2C1=O
The description is as §1. To be noted: Microsome. Format: microsomes.

B1: Vitamin K-dependent gamma-carboxylase (Rattus norvegicus), O88496 (protein)
chain: MAVHRGSARAAPASDKVQKNKPAQTSGLEQGSRMARIFGFEWADLSSWQSVVTLLNRPTDPANLAVFRFLFAFLMLLDIPQERGLSSLDRKYLDGLDVCRFPLLDALRPLPLDWMYLVYTIMFLGALGMMLGLWYRLSCMLFLLPYWYVFLLDKTSWNNHSYLYGLLAFQLTFMDANHYWSVDGLLSAQKKNAHVPLWNYTVLRGQIFIVYFIAGVKKLDADWVEGYSMEHLSRHWLFSPFKLVLSEELTSLLVVHWCGLLLDLSAGFLLFFDASRPIGLVFVSYFHCMNSQLFSIGMFPYVMLASSPLFCSAEWPRKLVARCPKRLQELLPAKAAPRPSASCVYKRARAKAGQKPGLRHHLGTVFTLLYLLEQLFLPYSHFLTQGYNNWTNGLYGYSWDMMVHSRSHQHVKITYRDGLTGELGYLNPGVFTQSRRWKDHADMLKQYATCLSLLLPKYNVTEPQIYFDIWVSINDRFQQRLFDPRVDIVQAVWSPFRRTPWVQPLLMDLSPWRTKLQDIKSSLDNHTEVVFIADFPGLHLENFVSEDLGNTSIQLLQGEVTVELVAEQKNQTLREGEKMQLPAGEYHKVYTVSSSPSCYMYIYVNTTEVALEQDLAYLQELKEKVENGSETGPLPPELQPLLEGEVKGGPEPTPLVQTFLRRQRKLQEIERRRNSPLHERFLRFVLRKLYVFRRSFLMTRISLRNLLFGRPSLEQLAQEVTYANLRPFEPVDESSASNTDSSDPHPSEPDSEHVHSEL
On to B1, for which the Km in data set [1] is 44 µM and < 50 µM; in data set [2] it was 85 µM.
